According to patent US20240309103A1:

Experiments:
[1] = target: human NPR1 on HEK293/hNPR1.myc.DDK cells (0 hANP) (human) (UniProt P16066); experiment: cell-based or functional assay
[2] = target: hNPR1-mFc:hANP or hNPR1-hFc:hANP complex (human) (UniProt P01160); experiment: SPR, mAb captured, 25C
[3] = target: hNPR1-mFc:hBNP complex (human) (UniProt P16860); experiment: SPR, mAb captured, 25C
mfNPR1-mFc (monkey) [4] = experiment: SPR, mAb captured, 25C
[5] = target: mfNPR1-mFc:hANP complex (monkey; human) (UniProt P01160); experiment: SPR, mAb captured, 25C
[6] = target: mfNPR1-mFc:hBNP complex (monkey; human) (UniProt P16860); experiment: SPR, mAb captured, 25C
[7] = target: hNPR1-mFc:hANP or hNPR1-hFc:hANP complex (human) (UniProt P01160); experiment: SPR, mAb captured, 37C
[8] = target: hNPR1-mFc:hBNP complex (human) (UniProt P16860); experiment: SPR, mAb captured, 37C
mfNPR1-mFc (monkey) [9] = experiment: SPR, mAb captured, 37C
[10] = target: mfNPR1-mFc:hANP complex (monkey; human) (UniProt P01160); experiment: SPR, mAb captured, 37C
[11] = target: human NPR1 on HEK293/hNPR1.myc.DDK cells (0 hANP) (human) (UniProt P16066); experiment: ECL cell binding (MSD), 0 hANP
mNPR1-mFc (mouse) [12] = experiment: SPR Biacore, mAb captured by anti-human Fc, 25C
[13] = target: mNPR1-mFc:hANP complex (mouse; human) (UniProt P01160); experiment: SPR Biacore, mAb captured by anti-human Fc, 25C
[14] = target: mNPR1-mFc:hBNP complex (mouse; human) (UniProt P16860); experiment: SPR Biacore, mAb captured by anti-human Fc, 25C
mNPR1-mFc (mouse) [15] = experiment: SPR Biacore, mAb captured by anti-human Fc, 37C
[16] = target: mNPR1-mFc:hANP complex (mouse; human) (UniProt P01160); experiment: SPR Biacore, mAb captured by anti-human Fc, 37C
[17] = target: mNPR1-mFc:hBNP complex (mouse; human) (UniProt P16860); experiment: SPR Biacore, mAb captured by anti-human Fc, 37C
[18] = target: mfNPR1-mFc:hBNP complex (monkey; human) (UniProt P16860); experiment: SPR Biacore, mAb captured by anti-human Fc, 37C

human NPR1 on HEK293/hNPR1.myc.DDK cells (0 hANP) (human), sequence (P16066 33-1061): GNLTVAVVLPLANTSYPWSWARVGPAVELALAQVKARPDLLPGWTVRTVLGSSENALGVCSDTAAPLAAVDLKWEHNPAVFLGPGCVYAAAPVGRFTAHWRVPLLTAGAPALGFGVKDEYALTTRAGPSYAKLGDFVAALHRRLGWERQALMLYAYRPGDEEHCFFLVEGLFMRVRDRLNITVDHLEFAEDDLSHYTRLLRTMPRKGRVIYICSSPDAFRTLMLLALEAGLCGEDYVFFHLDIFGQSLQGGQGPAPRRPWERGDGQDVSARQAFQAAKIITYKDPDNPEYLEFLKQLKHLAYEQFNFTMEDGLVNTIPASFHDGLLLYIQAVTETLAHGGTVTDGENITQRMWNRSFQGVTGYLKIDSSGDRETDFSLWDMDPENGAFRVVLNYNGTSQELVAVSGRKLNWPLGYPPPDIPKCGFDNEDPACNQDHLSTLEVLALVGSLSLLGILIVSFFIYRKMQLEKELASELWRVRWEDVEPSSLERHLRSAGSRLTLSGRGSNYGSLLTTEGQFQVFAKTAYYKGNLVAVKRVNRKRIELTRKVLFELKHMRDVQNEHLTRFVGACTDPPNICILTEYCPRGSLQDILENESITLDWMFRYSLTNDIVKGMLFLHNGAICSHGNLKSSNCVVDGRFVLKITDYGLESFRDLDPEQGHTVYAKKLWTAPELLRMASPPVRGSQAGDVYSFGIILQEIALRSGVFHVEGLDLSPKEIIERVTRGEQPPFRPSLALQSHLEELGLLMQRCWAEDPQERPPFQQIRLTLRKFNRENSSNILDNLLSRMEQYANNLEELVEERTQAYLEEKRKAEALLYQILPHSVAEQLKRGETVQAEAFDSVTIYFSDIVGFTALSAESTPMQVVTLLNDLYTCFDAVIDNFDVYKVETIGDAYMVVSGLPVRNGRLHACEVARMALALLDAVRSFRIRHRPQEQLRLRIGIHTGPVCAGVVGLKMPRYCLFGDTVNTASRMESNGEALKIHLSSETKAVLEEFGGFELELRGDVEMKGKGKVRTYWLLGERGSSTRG
mNPR1-mFc (mouse), sequence (chain, as listed by the source limits assumed): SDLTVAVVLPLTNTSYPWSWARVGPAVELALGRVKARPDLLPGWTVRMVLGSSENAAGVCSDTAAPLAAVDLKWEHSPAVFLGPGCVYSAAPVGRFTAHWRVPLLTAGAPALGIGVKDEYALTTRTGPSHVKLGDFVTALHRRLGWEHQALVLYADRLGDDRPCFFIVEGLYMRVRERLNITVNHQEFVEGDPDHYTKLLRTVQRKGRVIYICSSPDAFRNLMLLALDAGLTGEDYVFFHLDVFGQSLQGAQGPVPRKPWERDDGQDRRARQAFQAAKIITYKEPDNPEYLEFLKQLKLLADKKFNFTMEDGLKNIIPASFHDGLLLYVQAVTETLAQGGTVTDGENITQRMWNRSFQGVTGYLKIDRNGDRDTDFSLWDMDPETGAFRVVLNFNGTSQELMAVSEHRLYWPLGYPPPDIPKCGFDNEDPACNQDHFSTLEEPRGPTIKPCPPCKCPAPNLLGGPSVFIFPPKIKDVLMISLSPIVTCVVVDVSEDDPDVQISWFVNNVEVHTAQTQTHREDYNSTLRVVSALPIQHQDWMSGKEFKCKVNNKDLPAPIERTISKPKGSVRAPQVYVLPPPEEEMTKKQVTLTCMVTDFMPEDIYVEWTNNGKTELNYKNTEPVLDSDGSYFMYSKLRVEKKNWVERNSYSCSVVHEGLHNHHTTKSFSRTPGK
mfNPR1-mFc (monkey), sequence (chain, as listed by the source limits assumed): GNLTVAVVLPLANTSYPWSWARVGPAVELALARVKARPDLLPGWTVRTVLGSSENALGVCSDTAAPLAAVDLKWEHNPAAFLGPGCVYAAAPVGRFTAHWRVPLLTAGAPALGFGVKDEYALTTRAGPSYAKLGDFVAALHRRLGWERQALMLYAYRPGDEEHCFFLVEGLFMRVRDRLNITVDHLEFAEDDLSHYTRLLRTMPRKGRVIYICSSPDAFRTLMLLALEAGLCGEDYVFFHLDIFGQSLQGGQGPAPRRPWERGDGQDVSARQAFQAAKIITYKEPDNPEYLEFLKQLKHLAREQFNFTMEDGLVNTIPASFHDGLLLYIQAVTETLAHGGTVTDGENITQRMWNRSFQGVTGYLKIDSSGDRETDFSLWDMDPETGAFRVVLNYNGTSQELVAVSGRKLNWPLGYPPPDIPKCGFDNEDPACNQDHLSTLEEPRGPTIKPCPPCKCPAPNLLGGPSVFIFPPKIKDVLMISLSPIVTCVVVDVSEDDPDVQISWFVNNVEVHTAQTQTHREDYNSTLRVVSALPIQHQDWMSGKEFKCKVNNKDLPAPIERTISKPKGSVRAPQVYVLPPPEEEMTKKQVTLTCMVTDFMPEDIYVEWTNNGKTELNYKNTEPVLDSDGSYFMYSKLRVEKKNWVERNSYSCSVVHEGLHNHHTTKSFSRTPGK

EC50 (pM), ligand ANP, calcium flux activation, Expt II [1]	100 nM Ag Bound (RU) [2]	100 nM Ag Bound (RU) [3]	100 nM Ag Bound (RU) (mfNPR1-mFc (monkey) [4])	100 nM Ag Bound (RU) [5]	100 nM Ag Bound (RU) [6]	100 nM Ag Bound (RU) [7]	100 nM Ag Bound (RU) [8]	100 nM Ag Bound (RU) (mfNPR1-mFc (monkey) [9])	100 nM Ag Bound (RU) [10]	% Activation (vs ANP max), Expt 1 [1]	% Activation (vs. ANP max), Expt II [1]	Ratio at 3.7 nM Ab concentration of Cell Binding Signal (RLU) to HEK293/hNPR1.myc.DKK relative to parental HEK293 [11]	100 nM Ag Bound (RU) (mNPR1-mFc (mouse) [12])	100 nM Ag Bound (RU) [13]	100 nM Ag Bound (RU) [14]	100 nM Ag Bound (RU) (mNPR1-mFc (mouse) [15])	100 nM Ag Bound (RU) [16]	100 nM Ag Bound (RU) [17]	100 nM Ag Bound (RU) [18]	Substance
78.8 pM	–	–	–	–	–	–	–	–	–	–	–	–	–	–	–	–	–	–	–	ANP (from UniProt P01160 124-151) (ligand)
–	-12 RU	-11 RU	5 RU	7 RU	7 RU	-18 RU	-17 RU	8 RU	9 RU	-6.03%	1.9%	1	0 RU	1 RU	2 RU	2 RU	2 RU	3 RU	9 RU	IgG4 Isotype Control (antibody)
